From US20130337579, “Methods for Determining Protein Ligand Binding” (UNIVERSITY OF MARYLAND, COLLEGE PARK, published 2013)
Substitutions are numbered along the chain they refer to.

B1: 10:G-C oligo duplex (gd130/gd131) (dsDNA)
DNA 1: AGGAGGAATAAATGTCATCTAGATGACATTTTAGAGGAGG
DNA 2: CCTCCTCTAAAATGTCATCTAGATGACATTTATTCCTCCT
B2: 8,10:G-C oligo duplex (gd132/gd133) (dsDNA)
DNA 1: B1 DNA 1 with G14C, C27G
DNA 2: B1 DNA 2 with G14C, C27G
B3: ICAP oligo duplex (gd126/gd127) (dsDNA)
DNA 1: B1 DNA 1 with C16G, G25C
DNA 2: B1 DNA 2 with C16G, G25C

Legend:
[1] = biological target: CRP (catabolite activator protein, cAMP receptor protein) (Escherichia coli, UniProt P0ACJ8 P0ACJ8:2-210); assay: DRaCALA; 100 nM CRP, 4 nM probe, 200 uM cAMP; settings: tags: His-CRP expressed from pBAD-CRP, Ni-NTA and anion exchange; chain copies: 2; label: 5'-32P
CRP (catabolite activator protein, cAMP receptor protein), sequence (P0ACJ8 2-210, one chain of several): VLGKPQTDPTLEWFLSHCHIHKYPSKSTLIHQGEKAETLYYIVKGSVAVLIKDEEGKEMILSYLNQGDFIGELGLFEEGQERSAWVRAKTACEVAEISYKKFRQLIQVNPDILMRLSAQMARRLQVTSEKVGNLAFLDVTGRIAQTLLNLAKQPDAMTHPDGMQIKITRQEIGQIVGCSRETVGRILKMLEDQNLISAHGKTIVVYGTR

[2] = biological target: MBP (maltose binding protein) (UniProt P0AEX9 P0AEX9:27-396); assay: DRaCALA; 100 nM MBP, 4 nM probe, 200 uM cAMP

Row | Binder | binding result [1] | binding result [2]
1 | B1 | no binding | –
2 | B2 | no binding | –
3 | B3 | – | no binding
